In test [1] the test system is hG6PD promoter. Kind of test: NHR-promoter luciferase screen, hG6PD promoter. It counts as cell-based, human. The settings on record: for Luc. act., normalized to lacZ / Normalized Luc. act., normalized to control: G6PD promoter reporter, co-transfected HR, without or with its ligand; for Normalized Luc. act., normalized to control: relative to control; for luciferase activity normalized to lacZ activity and to a control, hG6PD: hG6PD promoter-luciferase, CV-1 cells, NHR +/- ligand, control = 1.00. The procedure: (§1) The use, feasibility, and reproducibility of the functional NHR-promoter screen in a 48-well format have been tested validated. Briefly, there were co-expressed 50 ng of each NHR/NHR homodimer or NHR/RXR heterodimer with 100 ng promoter/luciferase construct and 50 ng of LacZ (as a control for transfection efficiency) in CV-1 cells using Fugene HD (Roche) as a transfection reagent (alternatively or additionally, a CMV-YFP construct can be used as a transfection control). Each of the nuclear hormone receptors that were used in these experiments was cloned into a pcDNA3.1 vector and comprised a C-terminally linked V5H6 tag. Twenty-four hours after transfection, appropriate ligands were added, where applicable, (see Table 5 for various ligands and concentrations and after 48 hrs, samples were assayed for luciferase and LacZ activity. To measure for luciferase activity 15 ul of sample was added to 30 ul of luciferase buffer (20 mM tricine, 1.07 mM MgCarbonate, 2.67 mM MgSulfate, 0.1 mM Naz-EDTA, 5 mM DTT, 5 mM ATP, 0.15 mg/ml CoA, 0.5 mM Luciferin), mixed briefly, and run in a Perkin Elmer Victor 5 luminometer. Thus, the functional NHR-promoter screen was used to observe the transcriptional activity of 29 promoters from various physiological pathways including inflammation, lipid and sugar metabolism, cholesterol transport, xenobiotic metabolism, and circadian rhythm.
(§2) The promoters that facilitate transcription of the indicated gene products that were tested using the protocols described herein are listed in the first row of the table. The nuclear hormone receptors and, where applicable, ligands that were assayed for their transcriptional effects on the promoters are listed in the first column of the table. The data represent the luciferase activity of each sample normalized to both the lacZ activity of that sample and to a control, e.g., no NHR or ligand, as customary in the art. As described previously, these normalizations allow the transcriptional activity of each reporter cell to be compared to other samples.
(§3) Tables 7-40 show the transcriptional effects of the hormone receptors, and, where applicable, ligands (orphan receptors are screened without ligand), on each individual promoter. […] The control data of each table are shown in their last rows.

Test [2] has as its system mUCP2 promoter. Kind of test: NHR-promoter luciferase screen, mUCP2 promoter. It counts as cell-based, mouse. The settings on record: for Luc. act., normalized to lacZ / Normalized Luc. act., normalized to control: mUCP2 promoter reporter, co-transfected HR, with or without its ligand; for Normalized Luc. act., normalized to control: relative to control; for luciferase activity normalized to lacZ activity and to a control, mUCP2: mUCP2 promoter-luciferase, CV-1 cells, NHR +/- ligand, control = 1.00. The procedure: as §1, §2, §3

The subject of test [3] is hIRF7 promoter. Kind of test: NHR-promoter luciferase screen, hIRF7 promoter. The conditions noted are these: for Normalized Luc. act., normalized to control / Luc. act., normalized to lacZ: IRF7 promoter reporter; for Normalized Luc. act., normalized to control: HR without or with its ligand, relative to control; for Luc. act., normalized to lacZ: hormone receptor (HR) without or with its ligand; for hIRF7 promoter reporter activity: transcription factor +/- ligand, control = 1.00. It counts as cell-based, human. The procedure: as §1, §2, §3

Test [4] relates to hCYP3A4 promoter. Kind of test: NHR-promoter luciferase screen, hCYP3A4 promoter. It counts as cell-based, human. The conditions noted are these: for Luc. act., normalized to lacZ / Normalized Luc. act., normalized to control: CYP3A4 promoter, HR/ligand component; for hCYP3A4 promoter reporter activity: transcription factor +/- ligand, control = 1.00. How it is done:
(§4) Briefly, there were co-expressed 50 ng of each NHR/NHR homodimer or NHR/RXR heterodimer with 100 ng promoter/luciferase construct and 50 ng of LacZ (as a control for transfection efficiency) in CV-1 cells using Fugene HD (Roche) as a transfection reagent (alternatively or additionally, a CMV-YFP construct can be used as a transfection control). Each of the nuclear hormone receptors that were used in these experiments was cloned into a pcDNA3.1 vector and comprised a C-terminally linked V5H6 tag.
as §2, §3

In test [5] the test system is RevErba promoter. Briefly: NHR-promoter luciferase screen, RevErba (RVRa) promoter. It counts as cell-based. Also on record: key to mRevErba promoter reporter activity / Normalized Luc. act., normalized to control: luciferase activity normalized to lacZ and to control (no NHR/ligand). The settings on record: for Luc. act., normalized to lacZ / Normalized Luc. act., normalized to control / normalized Luc. act. on a logarithmic scale (column without head, Table 33): RVRa promoter; for Luc. act., normalized to lacZ / Normalized Luc. act., normalized to control: HR component without or with ligand; for normalized Luc. act. on a logarithmic scale (column without head, Table 33): log10 of activity normalized to control; for mRevErba promoter reporter activity: transcription factor +/- ligand, control = 1.00. How it is done:
as §4, §2
The control data of each table are shown in their last rows.

Test [6] concerns hTNFa promoter. Briefly: NHR-promoter luciferase screen, hTNFa promoter. It counts as cell-based, human. The settings on record: for Luc. act., normalized to lacZ / Normalized Luc. act., normalized to control: TNFa promoter, HR component without or with ligand; for hTNFa promoter reporter activity: transcription factor +/- ligand, control = 1.00. How it is done: as §1, §2, §3

B1: RORg: RAR-related Orphan Receptor γ (NR1F3), cDNA driver (protein, UniProt P51449 1-518, looked up)
Nuclear receptor ROR-gamma: MDRAPQRQHRASRELLAAKKTHTSQIEVIPCKICGDKSSGIHYGVITCEGCKGFFRRSQRCNAAYSCTRQQNCPIDRTSRNRCQHCRLQKCLALGMSRDAVKFGRMSKKQRDSLHAEVQKQLQQRQQQQQEPVVKTPPAGAQGADTLTYTLGLPDGQLPLGSSPDLPEASACPPGLLKASGSGPSYSNNLAKAGLNGASCHLEYSPERGKAEGRESFYSTGSQLTPDRCGLRFEEHRHPGLGELGQGPDSYGSPSFRSTPEAPYASLTEIEHLVQSVCKSYRETCQLRLEDLLRQRSNIFSREEVTGYQRKSMWEMWERCAHHLTEAIQYVVEFAKRLSGFMELCQNDQIVLLKAGAMEVVLVRMCRAYNADNRTVFFEGKYGGMELFRALGCSELISSIFDFSHSLSALHFSEDEIALYTALVLINAHRPGLQEKRKVEQLQYNLELAFHHHLCKTHRQSILAKLPPKGKLRSLCSQHVERLQIFQHLHPIVVQAAFPPLYKELFSTETESPVGLSK
Take B1: in test [1], the “Luc. act., normalized to lacZ” value stood at 81.5; the “Normalized Luc. act., normalized to control” value worked out at 2.2; the “luciferase activity normalized to lacZ activity and to a control, hG6PD” value (from here on “luciferase activity normalized … hG6PD”) amounted to 2.18. In addition, in test [2], the “Luc. act., normalized to lacZ” value turned out to be 169.5; the “Normalized Luc. act., normalized to control” value is recorded as 1.5; the “luciferase activity normalized to lacZ activity and to a control, mUCP2” value (“luciferase activity normalized … mUCP2” for short) was 1.54. Moreover, in test [3], the “Normalized Luc. act., normalized to control” value is given as 1.7; the “Luc. act., normalized to lacZ” value is 44.4; the “hIRF7 promoter reporter activity” value turned out to be 1.69. Also, in test [4], the “Luc. act., normalized to lacZ” value amounted to 3.4; the “Normalized Luc. act., normalized to control” value came to 0.8; the “hCYP3A4 promoter reporter activity” value turned out to be 0.76. Also, in test [5], the “Luc. act., normalized to lacZ” value is given as 67.79; the “Normalized Luc. act., normalized to control” value was found to be 2.4; the “normalized Luc. act. on a logarithmic scale (column without head, Table 33)” value was found to be 0.38; the “mRevErba promoter reporter activity” value is recorded as 2.42. In test [6], the “Luc. act., normalized to lacZ” value is recorded as 1152.0; the “Normalized Luc. act., normalized to control” value was determined as 1.2; the “hTNFa promoter reporter activity” value came to 1.17.

B2: LXRb: Liver X Receptor β (NR1H2), cDNA driver (protein, UniProt P55055 1-460, looked up)
Oxysterols receptor LXR-beta: MSSPTTSSLDTPLPGNGPPQPGAPSSSPTVKEEGPEPWPGGPDPDVPGTDEASSACSTDWVIPDPEEEPERKRKKGPAPKMLGHELCRVCGDKASGFHYNVLSCEGCKGFFRRSVVRGGARRYACRGGGTCQMDAFMRRKCQQCRLRKCKEAGMREQCVLSEEQIRKKKIRKQQQESQSQSQSPVGPQGSSSSASGPGASPGGSEAGSQGSGEGEGVQLTAAQELMIQQLVAAQLQCNKRSFSDQPKVTPWPLGADPQSRDARQQRFAHFTELAIISVQEIVDFAKQVPGFLQLGREDQIALLKASTIEIMLLETARRYNHETECITFLKDFTYSKDDFHRAGLQVEFINPIFEFSRAMRRLGLDDAEYALLIAINIFSADRPNVQEPGRVEALQQPYVEALLSYTRIKRPQDQLRFPRMLMKLVSLRTLSSVHSEQVFALRLQDKKLPPLLSEIWDVHE
Take B2: in test [1], the “Luc. act., normalized to lacZ” value is 46.8; the “Normalized Luc. act., normalized to control” value is listed as 1.3; the “luciferase activity normalized … hG6PD” value was 1.25. Also, in test [2], the “Luc. act., normalized to lacZ” value was 170.7; the “Normalized Luc. act., normalized to control” value was 1.6; the “luciferase activity normalized … mUCP2” value is reported as 1.55. Also, in test [3], the “Normalized Luc. act., normalized to control” value is on record as 1.7; the “Luc. act., normalized to lacZ” value is reported as 45.1; the “hIRF7 promoter reporter activity” value worked out at 1.71. In test [4], the “Luc. act., normalized to lacZ” value came out at 4.8; the “Normalized Luc. act., normalized to control” value is 1.1; the “hCYP3A4 promoter reporter activity” value stood at 1.08. In test [5], the “Luc. act., normalized to lacZ” value is 30.9; the “Normalized Luc. act., normalized to control” value is reported as 1.1; the “normalized Luc. act. on a logarithmic scale (column without head, Table 33)” value was found to be 0.04; the “mRevErba promoter reporter activity” value was 1.10. In addition, in test [6], the “Luc. act., normalized to lacZ” value was 866.1; the “Normalized Luc. act., normalized to control” value was 0.9; the “hTNFa promoter reporter activity” value came to 0.88.

B3: RORa: RAR-related Orphan Receptor α (NR1F1), cDNA driver (protein, UniProt P35398 1-523, looked up)
Nuclear receptor ROR-alpha: MESAPAAPDPAASEPGSSGADAAAGSRETPLNQESARKSEPPAPVRRQSYSSTSRGISVTKKTHTSQIEIIPCKICGDKSSGIHYGVITCEGCKGFFRRSQQSNATYSCPRQKNCLIDRTSRNRCQHCRLQKCLAVGMSRDAVKFGRMSKKQRDSLYAEVQKHRMQQQQRDHQQQPGEAEPLTPTYNISANGLTELHDDLSNYIDGHTPEGSKADSAVSSFYLDIQPSPDQSGLDINGIKPEPICDYTPASGFFPYCSFTNGETSPTVSMAELEHLAQNISKSHLETCQYLREELQQITWQTFLQEEIENYQNKQREVMWQLCAIKITEAIQYVVEFAKRIDGFMELCQNDQIVLLKAGSLEVVFIRMCRAFDSQNNTVYFDGKYASPDVFKSLGCEDFISFVFEFGKSLCSMHLTEDEIALFSAFVLMSADRSWLQEKVKIEKLQQKIQLALQHVLQKNHREDGILTKLICKVSTLRALCGRHTEKLMAFKAIYPDIVRLHFPPLYKELFTSEFEPAMQIDG
Consider B3, for which, in test [1], the “Luc. act., normalized to lacZ” value is listed as 74.0; the “Normalized Luc. act., normalized to control” value amounted to 2.0; the “luciferase activity normalized … hG6PD” value was found to be 1.98. In test [2], the “Luc. act., normalized to lacZ” value is 104.0; the “Normalized Luc. act., normalized to control” value came out at 0.9; the “luciferase activity normalized … mUCP2” value was 0.95. In test [3], the “Normalized Luc. act., normalized to control” value was 1.5; the “Luc. act., normalized to lacZ” value worked out at 39.9; the “hIRF7 promoter reporter activity” value turned out to be 1.51. Also, in test [4], the “Luc. act., normalized to lacZ” value is recorded as 1.6; the “Normalized Luc. act., normalized to control” value worked out at 0.4; the “hCYP3A4 promoter reporter activity” value was determined as 0.36. Moreover, in test [5], the “Luc. act., normalized to lacZ” value came to 86.91; the “Normalized Luc. act., normalized to control” value came out at 3.1; the “normalized Luc. act. on a logarithmic scale (column without head, Table 33)” value is reported as 0.49; the “mRevErba promoter reporter activity” value stood at 3.11. Besides, in test [6], the “Luc. act., normalized to lacZ” value is given as 607.5; the “Normalized Luc. act., normalized to control” value is given as 0.6; the “hTNFa promoter reporter activity” value amounted to 0.62.

For the origin of these results see patent US20110263454A1, “Methods of Identifying Functional Characteristics of Promoters, Transcription Modifying Proteins and Transcription Modulating Agents” (Salk Institute for Biological Studies, priority 2008, published 2011).
